Our source for the response values is article PMC5629025 (2017).

To fix the notation:
B1: FLAG-, HA-tagged wild-type Bag-1L [human] / androgen receptor, endogenous in LNCaP cells [human (endogenous in LNCaP)] (parent complex)
chain 1: MAQRGGARRPRGDRERLGSRLRALRPGREPRQSEPPAQRGPPPSGRPPARSTASGHDRPTRGAAAGARRPRMKKKTRRRSTRSEELTRSEELTLSEEATWSEEATQSEEATQGEEMNRSQEVTRDEESTRSEEVTREEMAAAGLTVTVTHSNEKHDLHVTSQQGSSEPVVQDLAQVVEEVIGVPQSFQKLIFKGKSLKEMETPLSALGIQDGCRVMLIGKKNSPQEEVELKKLKHLEKSVEKIADQLEELNKELTGIQQGFLPKDLQAEALCKLDRRVKATIEQFMKILEEIDTLILPENFKDSRLKRKGLVKKVQAFLAECDTVEQNICQETERLQSTNFALAE
chain 2: MEVQLGLGRVYPRPPSKTYRGAFQNLFQSVREVIQNPGPRHPEAASAAPPGASLLLLQQQQQQQQQQQQQQQQQQQQQQQETSPRQQQQQQGEDGSPQAHRRGPTGYLVLDEEQQPSQPQSALECHPERGCVPEPGAAVAASKGLPQQLPAPPDEDDSAAPSTLSLLGPTFPGLSSCSADLKDILSEASTMQLLQQQQQEAVSEGSSSGRAREASGAPTSSKDNYLGGTSTISDNAKELCKAVSVSMGLGVEALEHLSPGEQLRGDCMYAPLLGVPPAVRPTPCAPLAECKGSLLDDSAGKSTEDTAEYSPFKGGYTKGLEGESLGCSGSAAAGSSGTLELPSTLSLYKSGALDEAAAYQSRDYYNFPLALAGPPPPPPPPHPHARIKLENPLDYGSAWAAAAAQCRYGDLASLHGAGAAGPGSGSPSAAASSSWHTLFTAEEGQLYGPCGGGGGGGGGGGGGGGGGGGGGGGEAGAVAPYGYTRPPQGLAGQESDFTAPDVWYPGGMVSRVPYPSPTCVKSEMGPWMDSYSGPYGDMRLETARDHVLPIDYYFPPQKTCLICGDEASGCHYGALTCGSCKVFFKRAAEGKQKYLCASRNDCTIDKFRRKNCPSCRLRKCYEAGMTLGARKLKKLGNLKLQEEGEASSTTSPTEETTQKLTVSHIEGYECQPIFLNVLEAIEPGVVCAGHDNNQPDSFAALLSSLNELGERQLVHVVKWAKALPGFRNLHVDDQMAVIQYSWMGLMVFAMGWRSFTNVNSRMLYFAPDLVFNEYRMHKSRMYSQCVRMRHLSQEFGWLQITPQEFLCMKALLLFSIIPVDGLKNQKFFDELRMNYIKELDRIIACKRKNPTSCSRRFYQLTKLLDSVQPIARELHQFTFDLLIKSHMVSVDFPEMMAEIISVQVPKILSGKVKPIYFHTQ

The variants in the test derive from B1. Briefly: SILAC RIME; LNCaP cells stably expressing FLAG-HA-tagged wild-type or CMut Bag-1L; parent: 21; read off a plot.
As for chain 1 MAQRGGARRPRGDRERLGSRLRALRPGREPRQSEPPAQRGPPPSGRPPARSTASGHDRPTRGAAAGARRPRMKKKTRRRSTRSEELTRSEELTLSEEATWSEEATQSEEATQGEEMNRSQEVTRDEESTRSEEVTREEMAAAGLTVTVTHSNEKHDLHVTSQQGSSEPVVQDLAQVVEEVIGVPQSFQKLIFKGKSLKEMETPLSALGIQDGCRVMLIGKKNSPQEEVELAALKHLEKSVEKIADQLEELNKELTGIQQGFLPKDLQAEALCKLDRRVAATIEQFMKILEEIDTLILPENFKDSRLKRKGLVKKVQAFLAECDTVEQNICQETERLQSTNFALAE [chain 1 K231A, chain 1 K232A, chain 1 K279A], the response is roughly 19 log2 intensity.
